# From publication doi:10.1101/2025.06.29.662183
# Target: CHIKV nsP2 protease (Chikungunya virus)
# Test: BLI
substance,measurement,value
pantinin-1 (peptide),Kd,9.29 µM
